Reference: US7879328B2 (Human Genome Sciences, Inc., priority 2000, dated 2011)

Key:
[1] = test system: HIV; settings: greater activity; cited from earlier work
[2] = molecular target: T1, murine membrane-bound B Lymphocyte Stimulator on P388 plasma membranes (Mus musculus, UniProt Q9WU72); assay: Competition ELISA on P388 plasma membranes; type: binding; settings: phage scFv; for competition of P388 plasma membrane binding by HIS-tagged B Lymphocyte Stimulator: human competitor; for recognition of P388 plasma membranes: membranes coated at 10 μg/ml
T1 construct: endogenous in cells; host or cells: P388.D1 cells, plasma membrane fraction coated on plates
Procedure: The ability of the 5 scFvs listed in Table 8 to also recognize murine membrane-bound B Lymphocyte Stimulator was determined using a competition ELISA. This assay assesses the ability of test phage scFvs to bind to the membrane-bound form of B Lymphocyte Stimulator on the murine cell line, P388, plasma membranes in the presence of different forms of competing human B Lymphocyte Stimulator. Competing B Lymphocyte Stimulator was either presented as the His-tagged form of B Lymphocyte Stimulator, or soluble B Lymphocyte Stimulator. ScFvs that recognize mouse membrane-bound B Lymphocyte Stimulator would give an ELISA signal on the P388 plasma membranes that is competed out by pre-incubation with HIS-tagged B Lymphocyte Stimulator but not by pre-incubation with soluble B Lymphocyte Stimulator.
P388.D1 cells are a mouse monocyte-macrophage like cell line. They were cultured in L15 medium supplemented with 2 mM L-glutamine, 10% CS, 10U penicillin, 100 µg/ml streptomycin (all reagents from Sigma). Cells were split 1:4 every 3-4 days to maintain a cell density of 2−8×10^5 per ml. A fresh aliquot of cells was thawed from liquid nitrogen every 6 weeks. Plasma membrane fractions were prepared as described in Example 2.
P388 plasma membranes ([…] per well) were coated at 10 μg/ml in PBS onto Falcon 96-well plates overnight at 4° C. The method is otherwise essentially as described Example 16.

[3] = molecular target: mouse B Lymphocyte Stimulator (Mus musculus, UniProt Q9WU72); assay: Phage ELISA on immobilized mouse B Lymphocyte Stimulator; type: binding; settings: phage scFv; antigen coated at 1 μg/ml
Procedure: To determine the specificity of the 48 scFvs, a phage ELISA was performed against human and mouse B Lymphocyte Stimulator, and a panel of related and unrelated human antigens: Fas ligand, TRAIL, TNFα, TNFβ, and PBS, The: Fas ligand, TRAIL, TNFα, and TNFβ antigens were obtained from R&D Systems, Minneapolis, Minn., Individual E. coli colonies containing phagemid were inoculated into 5 ml 2YTAG and incubated at 37° C. for 4 hours, shaking. M13KO7 helper phage (Pharmacia) was added to each tube to a MOI of 10 and incubated […] 1 hour, the first 30 minutes static and the final 30 minutes with gentle shaking. Cells were pelleted by centrifugation at 3,500 rpm for 10 minutes and the supernatant discarded. Cell pellets were resuspended in 5 ml 2TYAK and incubated at 30° C. overnight with shaking. The next day, the cells were pelleted by centrifugation at 3,500 rpm for 10 minutes. The phage-containing supernatant (5 ml) was carefully transferred to a fresh tube, 1 ml of 6MPBS was added, and the tube was incubated at room temperature for 1 hour to pre-block the phage prior to ELISA.
All antigens were coated at 1 μg/ml. ELISAs were performed essentially as described in Example 2. The only exception to this being the detection of phage antibody binding to mouse B Lymphocyte Stimulator where the step involving incubation with the HRP-labelled anti-mouse polymer was omitted. Binding to mouse B Lymphocyte Stimulator was detected with TMB as in Example 2.
To determine the specificity of the 33 scFvs, a phage ELISA was performed as described in Example 4 against human and mouse B Lymphocyte Stimulator, and a panel of related human antigens: TRAIL, LIGHT, TNFα, TNFβ, and an uncoated well (PBS only).

Sequence of mouse B Lymphocyte Stimulator (Q9WU72 127-309 limits assumed): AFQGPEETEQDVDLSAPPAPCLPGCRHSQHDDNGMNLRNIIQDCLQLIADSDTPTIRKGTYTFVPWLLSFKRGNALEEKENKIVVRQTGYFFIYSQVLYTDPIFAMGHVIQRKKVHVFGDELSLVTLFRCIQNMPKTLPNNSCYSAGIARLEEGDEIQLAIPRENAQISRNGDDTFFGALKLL
T1 sequence (Q9WU72 whole entry): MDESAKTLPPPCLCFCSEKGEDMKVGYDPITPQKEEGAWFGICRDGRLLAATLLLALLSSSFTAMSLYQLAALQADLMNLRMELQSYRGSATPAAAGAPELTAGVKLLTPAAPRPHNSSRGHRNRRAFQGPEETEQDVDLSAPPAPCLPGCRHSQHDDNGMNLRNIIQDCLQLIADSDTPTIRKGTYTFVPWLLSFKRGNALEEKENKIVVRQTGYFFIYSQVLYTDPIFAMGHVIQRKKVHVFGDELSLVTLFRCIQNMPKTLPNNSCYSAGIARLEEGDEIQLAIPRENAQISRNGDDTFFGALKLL

| Molecule | competition of P388 plasma membrane binding by HIS-tagged B Lymphocyte Stimulator [2] | recognition of P388 plasma membranes [2] | binding to immobilized mouse B Lymphocyte Stimulator [3] | activity relative to HBY097 [1] |
| --- | --- | --- | --- | --- |
| CC[C@H]1C(=O)Nc2ccc(F)cc2N1C(=O)OC(C)C [GW-420867X] |  |  |  | 25 fold |
| I037E07: scFv, panel 1, binds soluble and membrane-bound B Lymphocyte Stimulator (protein, listed as Homo sapiens) scFv: QVQLVQSGAEVKKPGASVKVSCKASGYTFTNYGITWVRQAPGQGLEWMGWISAYNGNRNYAQKLQGRVTMTTDTSTSTAYMELRSLRSDDTAVYYCVRDGIDILLVPAALMDVWGRGTMVTVSSGGGGSGGGGSGGGGSQSVLTQPASVSGSPGQSITISCTGTSSDVGGYNYVSWYQQHPGKAPKLMIYEGSKRPSGVSNRFSGSKSGNTASLTISGLQAEDEADYYCSSYTTRSTRVFGGGTKLTVLG |  |  | did not bind |  |
| I037E12: scFv, panel 1, binds soluble and membrane-bound B Lymphocyte Stimulator (protein, listed as Homo sapiens) scFv: EVQLVQSGAEVKKPGASVKVSCKASGYTFTNYGITWVRQAPGQGLEWMGWISAYNGNRNYAQKLQGRVTMTTDTSTSTAYMELRSLRSDDTAVYYCVRDGIDILLVPAALMDVWGKGTLVTVSSGGGGSGGGGSGGGGSQSVLTQPASVSGSPGQSITISCTGTSSDVGGYNYVSWYQQHPGKAPKLMIYEGNKRPSGVSNRFSGSKSGNTASLTISGLQAEDEADYYCSSYTTRSTRVFGGGTKLTVLG |  |  | did not bind |  |
| I008C03: scFv, panel 1, binds soluble and membrane-bound B Lymphocyte Stimulator (protein, listed as Homo sapiens) scFv: QMQLVRSGGGVVQPGRSLRLSCAASGFTFSSYGMHWVRQAPGKGLEWVSVTYSGGNTNYADSVRGRFTISRDNSKNTLYLQMNSLRAEDTAVYYCAREGSYDILTGYYVGVGRMDVWGKGTLVTVSSGGGGSGGGGSGGGGSSELTQDPAVSVALGQTVRITCQGDSLRSYYTNWFQQKPGQAPLLVVYAKNKRPSGIPDRFSGSSSGNTASLTITGAQAEDEADYYCNSRDSSGNHVVFGGGTKLTVLG |  |  | did not bind |  |

Now from value to molecule, other results behind:

| competition of P388 plasma membrane binding by HIS-tagged B Lymphocyte Stimulator [2] | recognition of P388 plasma membranes [2] | binding to immobilized mouse B Lymphocyte Stimulator [3] | Molecule | activity relative to HBY097 [1] |
| --- | --- | --- | --- | --- |
| competed out | recognize |  | I082H08: scFv, panel 3, binds membrane-bound B Lymphocyte Stimulator (protein, listed as Homo sapiens) scFv: EVQLVESGGGLVQPGGSLRLSCAASGFTFSDYGMHWVRQRPGKGLEWIAFIGSDGSNKYYGDTVKGRFTISRDNAKNSLYLQMNSLRAEGTAVYYCARDWDMDVWGQGTMVTVSSGGGGSGGGGSGGGGSSHVILTQPRSVSGSPGQSVTISCTGTSSDVGGYHYVSWYQQHPGKAPRLMIYEVTKRPSGVSNRFSGSKSGNTASLTISGVQAEDEADYYCSSYTSASTVIFGGGTKLTVLG |  |
| competed out | recognize |  | I099D03: scFv, panel 3, binds membrane-bound B Lymphocyte Stimulator (protein, listed as Homo sapiens) scFv: QVQLVQSGAEVKKPGASVRVSCKSSGYTFTNYGISWVRQAPGQGLEWMGWISNNNGKTYYAQKVQGRVTMTTDTSTSTDYMELRGLRSDDTAIYYCARDNGGGTIGFDYWGRGTLVTVSSGGGGSGGGGSGGGGSAQAVLTQPSSVSGAPGQRVTMSCTGSSSNIGAGYDVHWYQQLPGTAPKLLIYDNTNRPSGVPDRFSGSRSGTSASLAITGLQAEDEADYFCQSYDITLSAVFGTGTKVTVLG |  |
| competed out | recognize |  | I079E02: scFv, panel 3, binds membrane-bound B Lymphocyte Stimulator (protein, listed as Homo sapiens) scFv: QVQLVQSGAEVKKPGSSVKVSCKASGGTFSSYAISWVRQAPGQGLEWMGGIIPIFGTANYAQKFQGRVTITADKSTSTAYMELSSLRSDDTAVYYCARDSGSYYYDAFDIWGKGTMVTVSSGGGGSGGGGSGGGGSDIVMTQSPSTLSASVGDRVTITCRASQGISSWLAWYQQKPGKAPKLLIYAASSLQSGVPSRFSGSGSGTDFTLTISSLQPEDFATYYCQQANSFPLTFGGGTKVEIKR |  |
